Measurements: patent publication US20250313632A1
Numbering of substitutions follows the chain as printed.

Columns and labels:
[1] = molecular target: human B7-H3 expressed on A375 tumor cells (human) (UniProt Q5ZPR3); test: flow cytometry on A375 cells, MFI(PE); unit from the axis Conc (nM); fit value of a flat control curve
[2] = molecular target: human B7-H3 expressed on A375 tumor cells (human) (UniProt Q5ZPR3); test: flow cytometry on A375 cells, MFI(PE); unit from the axis Conc(nM); fit value of a flat control curve
[3] = molecular target: human B7-H3 expressed on A375 tumor cells (human) (UniProt Q5ZPR3); test: flow cytometry on A375 cells, MFI(PE); unit from the axis Conc (nM)
[4] = molecular target: human B7-H3 (4Ig) protein (his tag) (human) (UniProt Q5ZPR3); test: SPR (Biacore T200), antibody captured on Protein A chip, B7-H3 injected, 1:1 model
[5] = molecular target: human B7-H3 protein (human) (UniProt Q5ZPR3); test: Octet (BLI) epitope binning on captured human B7-H3; competitor 72D1D11
[6] = molecular target: human B7-H3 protein (human) (UniProt Q5ZPR3); test: Octet (BLI) epitope binning on captured human B7-H3; competitor AHP06345
[7] = molecular target: human B7-H3 protein (human) (UniProt Q5ZPR3); test: Octet (BLI) epitope binning on captured human B7-H3; competitor CA84D
[8] = molecular target: human B7-H3 expressed on A375 tumor cells (human) (UniProt Q5ZPR3); test: flow cytometry on A375 cells, MFI(PE); unit from the axis Conc (nM); remark: listed apart in the source
[9] = molecular target: human B7-H3 protein (human) (UniProt Q5ZPR3); test: Octet (BLI) epitope binning on captured human B7-H3; competitor AHP05562
[10] = molecular target: human B7-H3 expressed on A375 tumor cells (human) (UniProt Q5ZPR3); test: flow cytometry on A375 cells, MFI(PE); unit from the axis Conc (nM); remark: listed apart in the source
[11] = molecular target: human B7-H3 expressed on A375 tumor cells (human) (UniProt Q5ZPR3); test: flow cytometry on A375 cells, MFI(647); unit from the axis Conc (nM)
[12] = molecular target: human B7-H3 expressed on A375 tumor cells (human) (UniProt Q5ZPR3); test: flow cytometry on A375 cells, MFI(647); unit from the axis Conc (nM); fit value of a flat curve
[13] = molecular target: human B7-H3 expressed on A375 tumor cells (human) (UniProt Q5ZPR3); test: flow cytometry on A375 cells, MFI(PE); unit from the axis Conc (nM); remark: listed apart in the source
[14] = molecular target: human B7-H3 expressed on A375 tumor cells (human) (UniProt Q5ZPR3); test: flow cytometry on A375.S2 cells, MFI(647); unit from the axis Conc (nM)
[15] = molecular target: human B7-H3 expressed on A375 tumor cells (human) (UniProt Q5ZPR3); test: flow cytometry on A375 cells, MFI(PE); unit from the axis Conc (nM); remark: listed apart in the source
[16] = molecular target: human B7-H3 expressed on A375 tumor cells (human) (UniProt Q5ZPR3); test: flow cytometry on A375 cells, MFI(PE); unit from the axis Conc(nM)

Molecule: hIgG (antibody)
- EC50 [1]: 1970 µM
- EC50 [2]: 0.014 µM

B1: 81C8A1 (antibody, V domains shown)
VH: QVTLKESGPGILQPSQTLSLTCSFSGFSLSTSGMGVSWIRQPPGKGLEWLAHIYWDDDRRYNPSLKSRLTISRDTSRNQVFLQITTVDTADTATYYCARSPYGSEAYWGQGTLVIVSA
VL: QIVLSQSPTILSAFPGEKVTMTCRASSSVSFIQWYQQKSGSSPKPWIYSPSNLASGVPTRFSGSGSGTSYSLTIGRVEAEDAATYYCQQWSSYPWTFGGGTKVEIK
- EC50 [3]: 0.00017 µM
- Kd [4]: 0.000196 µM
- koff [4]: 0.000111 s⁻¹
- kon [4]: 567000 M⁻¹ s⁻¹
- inhibition ratio [5]: 95.4%
- inhibition ratio [6]: -12.1%
- inhibition ratio [7]: -6.3%
- EC50 [8]: 0.00025 µM
- inhibition ratio [9]: 90.6%

B2: 72D1D11-z3 (antibody, V domains shown)
VH: QVQLVQSGSELKKPGASVKVSCKASGYTFTNLGLNWVRQAPGQGLEWMGWINTAGGQPTYAEDFKGRFVFSLDTSVSTAYLQISSLKAEDTAVYYCARDDGYYYTMDYWGQGTTVTVSS
VL: DIVMTQSPLSLPVTPGEPASISCRSSQSLVHSNGKTYLHWYLQKPGQSPQLLIYKVSNRFSGVPDRFSGSGSGTDFTLKISRVEAEDVGVYYCSQSTHVPWTFGGGTKLEIK
- EC50 [3]: 0.0004 µM
- EC50 [10]: 0.00058 µM
- EC50 [11]: 0.00064 µM

B3: 72D1D11-z3p8 (antibody, V domains shown)
VH: B2 VH with D100A
VL: B2 VL with G34A
- EC50 [12]: 22.4 µM

B4: 72D1D11-z3p7 (antibody, V domains shown)
VH: B2 VH with D100L
VL: B2 VL with G34A
- EC50 [12]: 115 µM

B5: 72D1D11-z9 (antibody, V domains shown)
VH: B2 VH with E46K, F68C, Y95F
VL: B2 VL with S7T
- EC50 [13]: 0.00051 µM

B6: 72D1D11-z13 (antibody, V domains shown)
VH: B2 VH with V2I, R38K, E46K, F68C, Y95F
VL: B2 VL with S7T
- EC50 [13]: 0.00036 µM

B7: 72D1D11-z15 (antibody, V domains shown)
VH: B2 VH with V2I, R38K, E46K, F68C, Y95F
VL: B2 VL
- EC50 [13]: 0.00047 µM

B8: 72D1D11-z11 (antibody, V domains shown)
VH: B2 VH with E46K, F68C, Y95F
VL: B2 VL
- EC50 [13]: 0.00036 µM

B9: 72D1D11-z3p6 (antibody, V domains shown)
VH: B2 VH with D100R
VL: B2 VL with G34A
- EC50 [12]: 20.9 µM

B10: 429H9F10 (antibody, V domains shown)
VH: QIQLVQSGPELKKPGETVKISCKASGYTFTYYGLNWVKQAPGKGLRWMGWINTSSGVPTYADDFKGRFAISLESSASTVFLEISNLKNEDTAAYFCAKDDGYFYTMDHWGQGTSVTVSS
VL: DIVMTQPPLSLPVSLGDQASISCRSSQSLVHNNGKTYLHWYLQKPGQSPKLLIYKVSNRFSGVPDRFSGSGSGTDFTLKISRVETEDLGVYFCSQSTQVPWTFGGGTKLEIK
- EC50 [14]: 0.0007 µM
- inhibition ratio [5]: 98.9%
- inhibition ratio [6]: -11.5%
- inhibition ratio [7]: -8%
- inhibition ratio [9]: -22.4%

B11: 72D1D11-p1 (antibody, V domains shown)
VH: QIQLVQSGPELKKPGETVKISCKASGYTFTNLGLNWVKQAPGKGLKWMGWINTAGGQPTYAEDFKGRCAFSLETSASTAYLQINNLKNEDTATYFCARDDGYYYTMDYWGQGTSVTVSS
VL: B10 VL with P7T, N32S, G34A, T85A, Q98H
- EC50 [15]: 0.00049 µM

B12: 72D1D11-z12 (antibody, V domains shown)
VH: B2 VH with E46K, F68C, Y95F
VL: B2 VL with Y92F
- EC50 [13]: 0.00035 µM

B13: 72D1D11-z14 (antibody, V domains shown)
VH: B2 VH with V2I, R38K, E46K, F68C, Y95F
VL: B2 VL with S7T, Y92F
- EC50 [13]: 0.00057 µM

B14: 72D1D11-z16 (antibody, V domains shown)
VH: B2 VH with V2I, R38K, E46K, F68C, Y95F
VL: B2 VL with Y92F
- EC50 [13]: 0.00032 µM

B15: 72D1D11-p2 (antibody, V domains shown)
VH: B11 VH
VL: B10 VL with P7T, N32S, N33Q, T85A, Q98H
- EC50 [15]: 0.00054 µM

B16: AHP05564 (antibody, V domains shown)
VH: EVQLVETGGGVVQPGRSLRLSCAASGFTFSSSGMHWVRQAPGKGLEWVAVISYDVTNKYYVDSVKGRFTISRDNSENTLYLQMNSLRAEDTGVYYCVRDGGPRWLGWYFDLWGRGTLVTVSS
VL: NIQMTQSPSSQSASVGDRVTITCRANQAIANSLAWYQQKPGKAPKLLLFGTSLLHSGVPSRFSGSGSGTEYTLTISSLQPDDFGTYYCQQYFSFPRTFGQGTQVDVY
- EC50 [16]: 0.0024 µM
- Kd [4]: 0.00052 µM
- koff [4]: 0.000862 s⁻¹
- kon [4]: 1.66e+06 M⁻¹ s⁻¹
- inhibition ratio [6]: 5.92%
- inhibition ratio [7]: 80.1%
- inhibition ratio [9]: -3.53%

B17: 81C8A1-z3 (antibody, V domains shown)
VH: QVTLKESGPALVKPTQTLTLTCTFSGFSLSTSGMGVSWIRQPPGKALEWLAHIYWDDDRRYNPSLKSRLTISKDTSKNQVVLTMTNMDPVDTATYYCARSPYGSEAYWGQGTLVTVSS
VL: EIVLTQSPDFQSVTPKEKVTITCRASSSVSFIQWYQQKPDQSPKPWIYSPSNLASGVPSRFSGSGSGTDFTLTINSLEAEDAATYYCQQWSSYPWTFGQGTKVEIK
- EC50 [8]: 0.00023 µM

B18: 81C8A1-z4 (antibody, V domains shown)
VH: B17 VH
VL: B17 VL with T5S, F70Y
- EC50 [8]: 0.00028 µM

B19: 81C8A1-z7 (antibody, V domains shown)
VH: B17 VH with K73R
VL: B17 VL
- EC50 [8]: 0.00039 µM

B20: 81C8A1-z8 (antibody, V domains shown)
VH: B17 VH with K73R
VL: B17 VL with T5S, F70Y
- EC50 [8]: 0.00025 µM

B21: 312E1E2 (antibody, V domains shown)
VH: QVQLQQSGPELVRPGVSVKISCKGSGYTFTDYAMHWVKQSHAKSLEWIGIVSTHYGNTNYNQNFKGKATMTVDKSSSTVYMELARLTSEDSAIYYCARSEGLRLDWFAHWGQGTLVTVSA
VL: DIQMTQSPASLSASVGEIVTITCRASENIYSYLAWYQQKQGKSPHLLVYNAKTLAEGVPSRFSGSGSGTQFSLKISRLQPEDFGSYYCQNHYVFPFTFGSGTKLEIK
- EC50 [14]: 0.00019 µM
- inhibition ratio [5]: -32.6%
- inhibition ratio [6]: 90%
- inhibition ratio [7]: -18.3%
- inhibition ratio [9]: -24.4%
